In patent publication US20260078398A1, “PLANTS GENETICALLY ENGINEERED FOR INCREASED WATER USE EFFICIENCY AND CARBON INTAKE AND METHODS FOR MAKING AND USING THEM” (The Regents of the University of California, priority 2022, published 2026):

Assays:
[1] = test system: CBC1; experiment: HT1-dependent CBC1 kinase activation, in vitro phosphorylation and in-gel kinase assays; assay type: biochemical, Arabidopsis; settings: kinase inactive isoforms, histone as substrate
Source text: A previous study reported that the HT1 kinase phosphorylates the CBC1 kinase in vitro (13). Whether this phosphorylation of CBC1 affects CBC1 activity remains unknown. We confirmed CBC1 phosphorylation by HT1 using recombinant His-HT1 and GST-CBC1 proteins by in vitro phosphorylation assays using radioactive ^32P-ATP (FIG. 5). Moreover, phosphorylation levels of histone, an artificial kinase substrate, were increased at the same time. […] In-gel kinase assays were pursued to test this hypothesis and provide direct evidence of HT1-dependent CBC1 kinase activation (FIG. 1A). […] We identified in vitro phosphorylation sites in CBC1 using mass spectrometry by analyzing recombinant CBC1 protein in the presence or absence of HT1 (FIG. 1C). We found two HT1-dependent phosphorylation sites (Thr-256 and Ser-280) that lie within or near the activation-loop of CBC1.
FIG. 1. […] Histone was used as an artificial phosphorylation substrate of CBC1. • (C) Recombinant CBC1 proteins were incubated with or without HT1 and ATP, and CBC1 phosphorylation sites were identified by mass spectrometry. The red fonts indicate HT1-dependent phosphorylation sites. CBC1 autophosphorylation sites detected without HT1 addition are labeled in black fonts. […] CBB gels show loading controls.

[2] = test system: MPK4 and HT1; experiment: in vitro pull-down assay, His-HT1 with GST-MPK4; assay type: binding, Arabidopsis; settings: pull-down with or without 20 mM NaHCO3
Experimental: We therefore investigated a possible binding between MPK4 and HT1 and the effect of HCO3^−.
FIG. 4. […] CO2 concentration changes were applied as indicated on top (p.p.m.). n=6 experiments, error bars show ±SEM. • (J) Model of plant stomatal CO2 sensor and signaling (see text).
FIG. 6. […] Precipitated proteins were washed with buffers supplemented with NaHCO3 at the indicated concentrations (0, 2 or 20 mM). See FIG. 4d for an independent experiment. To control for effects of Na^+, 20 mM NaCl (0 mM NaHCO3) for lanes 1 and 4 were included in the buffers; and 18 mM NaCl (2 mM NaHCO3) for lane 3 were included in buffer.

[3] = test system: MPK4/12, HT1 and CBC1 recombinant proteins; experiment: in vitro phosphorylation assay: NaHCO3-dependent down-regulation of HT1-mediated CBC1 phosphorylation; assay type: biochemical, Arabidopsis; settings: isoform replaces wild type protein or is added; 20 mM NaHCO3 vs NaCl control, 30 min
Experimental: We tested whether this HT1-mediated activation of CBC1 is inhibited by CO2/bicarbonate by adding NaHCO3 in in vitro phosphorylation reactions. […]
FIG. 2. […] Histone was used as an artificial protein kinase substrate. • (B) MPK4, HT1 and CBC1 proteins were incubated with NaHCO3 at the indicated concentrations for 30 min, and in vitro phosphorylation assays were performed. • (C) CBC1 band intensities as shown in (B) were measured using IMAGEJ™, n=4 experiments, error bars show ±S.D. • (D) MPK4, HT1 and CBC1 proteins were incubated in reaction buffers adjusted at different pH (6.5 to 8.5) for 30 min, and in vitro phosphorylation assays were performed. • (E) CBC1 band intensities and the density-ratios of ‘+NaHCO3’ to ‘—NaHCO3’ (=+NaCl controls) for each pH condition
FIG. 3. […] Ambient CO2 concentrations are indicated by the top bars. n=7 experiments, error bars show ±SEM. • (C) Recombinant HT1 (wild type, HT1-G89R or HT1-R173Q) and CBC1 proteins were incubated with MPK4 in the presence or absence of 20 mM NaHCO3 or 20 mM NaCl (−controls) for 30 min, and in vitro phosphorylation assays were performed. • (D) Recombinant MPK12, CBC1 and HT1 (WT or R102K) proteins were incubated with or without 20 mM NaHCO3 or 20 mM NaCl (−controls) for 30 min, and in vitro phosphorylation assays were performed. Histone was used as an artificial kinase substrate. • (E) HT1 (WT or A109V) proteins were used for in vitro phosphorylation assays. Proteins were incubated with or without 20 mM NaHCO3 or 20 mM NaCl (−controls) for 30 min. • (F) Stomatal conductances were analyzed using intact plants of Arabidopsis (Col-0 (WT), cbc1 cbc2, ht1-A109V and cbc1 cbc2 ht1-A109V). CO2 concentration changes were applied as indicated on top (p.p.m.). […]

B1: HT1-K113W: kinase inactive HT1 mutant (protein)
chain: MSGLCFNPFRLRWSLRSKLPLEPSLPNLPCNPSSSKTNRYAEAETMEKKRFDSMESWSMILESENVETWEASKGEREEWTADLSQLFIGNKFASGAHSRIYRGIYKQRAVAVWMVRIPTHKEETRAKLEQQFKSEVALLSRLFHPNIVQFIAACKKPPVYCIITEYMSQGNLRMYLNKKEPYSLSIETVLRLALDISRGMEYLHSQGVIHRDLKSNNLLLNDEMRVKVADFGTSCLETQCREAKGNMGTYRWMAPEMIKEKPYTRKVDVYSFGIVLWELTTALLPFQGMTPVQAAFAVAEKNERPPLPASCQPALAHLIKRCWSENPSKRPDFSNIVAVLEKYDECVKEGLPLTSHASLTKTKKAILDHLKGCVTSISSPFSSSSVPVNA
- HT1-dependent activation/phosphorylation of CBC1 [1]: did not activate CBC1

B2: HT1-G89R: recombinant HT1 protein kinase isoform with dominant G89R mutation (protein)
chain: MSGLCFNPFRLRWSLRSKLPLEPSLPNLPCNPSSSKTNRYAEAETMEKKRFDSMESWSMILESENVETWEASKGEREEWTADLSQLFIRNKFASGAHSRIYRGIYKQRAVAVKMVRIPTHKEETRAKLEQQFKSEVALLSRLFHPNIVQFIAACKKPPVYCIITEYMSQGNLRMYLNKKEPYSLSIETVLRLALDISRGMEYLHSQGVIHRDLKSNNLLLNDEMRVKVADFGTSCLETQCREAKGNMGTYRWMAPEMIKEKPYTRKVDVYSFGIVLWELTTALLPFQGMTPVQAAFAVAEKNERPPLPASCQPALAHLIKRCWSENPSKRPDFSNIVAVLEKYDECVKEGLPLTSHASLTKTKKAILDHLKGCVTSISSPFSSSSVPVNA
- HCO3- dependent binding of HT1 isoform with MPK4 [2]: disrupts the HCO3^−-dependent binding with MPK4
- NaHCO3-mediated down-regulation of CBC1 phosphorylation/activity with the protein isoform in the reaction [3]: no NaHCO3-mediated inhibition of CBC1 activity

B3: CBC1-D253A: kinase inactive CBC1 isoform (protein, UniProt Q9SSA4 1-411, looked up, variant D253A)
Serine/threonine-protein …: MKEKAESGGGVGYVRADQIDLKSLDEQLQRHLSKAWTMEKRKSLSDGEDNVNNTRHNQNNFGHRQLVFQRPLLGGGYSNNNNSSKNDIIRSTEVEKSRREWEIDPSKLIIKSVIARGTFGTVHRGIYDGQDVAVKLLDWGEEGHRSDAEIASLRAAFTQEVAVWHKLDHPNVTKFIGAAMGTSEMSIQTENGQMGMPSNVCCVVVEYCPGGALKSFLIKTRRRKLAFKVVIQLSLDLARGLSYLHSQKIVHRAVKTENMLLDKSRTLKIADFGVARLEASNPNDMTGETGTLGYMAPEVLNGSPYNRKCDVYSFGICLWEIYCCDMPYPDLSFSEVTSAVVRQNLRPEIPRCCPSSLANVMKRCWDANPEKRPEMEEVVAMLEAIDTSKGGGMIPPDQQQGCFCFRRHRGP
- HT1-dependent activation/phosphorylation of CBC1 [1]: reduced phosphorylation level compared to wild type CBC1
